# Test system: Escherichia coli TOP10
# Test: shrunken log2 fold change of peptide-encoding DNA abundance (4.5 h post-induction vs induction); higher = less antimicrobial activity (less host growth inhibition)
# Details: time post-induction: 4.5 h; library: site-saturation at positions 5, 18, 19, 20
# 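Also: peptides expressed intracellularly from a pBAD plasmid library in pooled LB shake-flask culture, induced with 0.3% L-arabinose, DNA abundance read by NGS, three biological replicates, DESeq2 with apeglm shrinkage.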
row,Sequence,shrunken log2 fold change
1,RRIRLRPPRLPRPRPRPVEYPRP,-0.294
2,RRIRQRPPRLPRPRPRPSYYPRP,-0.356
3,RRIRYRPPRLPRPRPRPMRMPRP,0.126
4,RRIRMRPPRLPRPRPRPPCKPRP,-0.0348
5,RRIRDRPPRLPRPRPRPKHSPRP,-0.211
6,RRIRGRPPRLPRPRPRPDSTPRP,0.213
7,RRIRLRPPRLPRPRPRPSAHPRP,0.0318
8,RRIRARPPRLPRPRPRPWACPRP,0.0376
9,RRIRARPPRLPRPRPRPHPFPRP,0.0322
10,RRIRPRPPRLPRPRPRPHDTPRP,-0.272
11,RRIRPRPPRLPRPRPRPWPTPRP,0.438
12,RRIRQRPPRLPRPRPRPNIRPRP,0.0516
13,RRIRMRPPRLPRPRPRPCHPPRP,0.00663
14,RRIRQRPPRLPRPRPRPNYYPRP,-0.611
15,RRIRWRPPRLPRPRPRPIENPRP,0.0363
16,RRIRKRPPRLPRPRPRPAHMPRP,0.686
17,RRIRYRPPRLPRPRPRPMGSPRP,-0.106
18,RRIRFRPPRLPRPRPRPDQFPRP,-0.221
19,RRIRYRPPRLPRPRPRPHVAPRP,-0.312
20,RRIRMRPPRLPRPRPRPPLYPRP,0.445
21,RRIRPRPPRLPRPRPRPNKPPRP,-0.00463
22,RRIRARPPRLPRPRPRPPLQPRP,0.557
23,RRIRRRPPRLPRPRPRPNNPPRP,0.0225
24,RRIRARPPRLPRPRPRPLTEPRP,0.608
25,RRIRCRPPRLPRPRPRPDHAPRP,-0.0323

row,Sequence,shrunken log2 fold change
1,RRIRVRPPRLPRPRPRPPRYPRP,0.317
2,RRIRTRPPRLPRPRPRPSSWPRP,0.131
3,RRIRLRPPRLPRPRPRPITTPRP,-0.283
4,RRIRSRPPRLPRPRPRPNKTPRP,-0.286
5,RRIRCRPPRLPRPRPRPYMSPRP,-0.366
6,RRIRRRPPRLPRPRPRPTTNPRP,0.338
7,RRIRIRPPRLPRPRPRPWRMPRP,-0.473
8,RRIRIRPPRLPRPRPRPCWLPRP,-0.196
9,RRIRLRPPRLPRPRPRPGGDPRP,0.152
10,RRIRGRPPRLPRPRPRPTFQPRP,0.59
11,RRIRSRPPRLPRPRPRPMPEPRP,0.376
12,RRIRWRPPRLPRPRPRPCECPRP,-0.151
13,RRIRHRPPRLPRPRPRPRMPPRP,0.133
14,RRIRHRPPRLPRPRPRPFAWPRP,-0.186
15,RRIRCRPPRLPRPRPRPIGRPRP,-0.0502
16,RRIRTRPPRLPRPRPRPRTGPRP,0.312
17,RRIRCRPPRLPRPRPRPNNGPRP,-0.451
18,RRIRDRPPRLPRPRPRPFCGPRP,0.258
19,RRIRSRPPRLPRPRPRPCYAPRP,-0.478
20,RRIRDRPPRLPRPRPRPVIHPRP,0.0491
21,RRIRMRPPRLPRPRPRPLTEPRP,1.31
22,RRIRGRPPRLPRPRPRPDEWPRP,0.757
23,RRIRYRPPRLPRPRPRPSWHPRP,-1.12
24,RRIRYRPPRLPRPRPRPKSMPRP,-0.584
25,RRIRLRPPRLPRPRPRPSHHPRP,-0.319

row,Sequence,shrunken log2 fold change
1,RRIRGRPPRLPRPRPRPSYTPRP,0.307
2,RRIRHRPPRLPRPRPRPFFGPRP,-0.0142
3,RRIRGRPPRLPRPRPRPWTHPRP,-0.0708
4,RRIRERPPRLPRPRPRPPNVPRP,0.149
5,RRIRYRPPRLPRPRPRPMPSPRP,0.0101
6,RRIRCRPPRLPRPRPRPKKKPRP,-0.0938
7,RRIRKRPPRLPRPRPRPAKKPRP,1.06
8,RRIRNRPPRLPRPRPRPKYQPRP,-0.0997
9,RRIRGRPPRLPRPRPRPCSCPRP,0.105
10,RRIRVRPPRLPRPRPRPHQNPRP,-0.296
11,RRIRMRPPRLPRPRPRPGDDPRP,1.96
12,RRIRWRPPRLPRPRPRPVNVPRP,-0.328
13,RRIRMRPPRLPRPRPRPMIRPRP,0.00211
14,RRIRCRPPRLPRPRPRPPQWPRP,0.446
15,RRIRIRPPRLPRPRPRPHMGPRP,-1.08
16,RRIRWRPPRLPRPRPRPTNIPRP,-0.509
17,RRIRSRPPRLPRPRPRPASIPRP,7.54e-05
18,RRIRERPPRLPRPRPRPVDIPRP,-0.105
19,RRIRRRPPRLPRPRPRPWVTPRP,-0.0822
20,RRIRRRPPRLPRPRPRPDSEPRP,0.036
21,RRIRARPPRLPRPRPRPMSQPRP,0.235
22,RRIRWRPPRLPRPRPRPLWEPRP,0.0357
23,RRIRRRPPRLPRPRPRPRYHPRP,0.14
24,RRIRSRPPRLPRPRPRPTMMPRP,-0.253
25,RRIRFRPPRLPRPRPRPYFFPRP,-0.544

row,Sequence,shrunken log2 fold change
1,RRIRGRPPRLPRPRPRPGKPPRP,0.516
2,RRIRCRPPRLPRPRPRPDEAPRP,0.262
3,RRIRYRPPRLPRPRPRPINYPRP,-1.12
4,RRIRRRPPRLPRPRPRPIKWPRP,0.0148
5,RRIRPRPPRLPRPRPRPDWCPRP,-0.179
6,RRIRCRPPRLPRPRPRPWPYPRP,-0.115
7,RRIRIRPPRLPRPRPRPRASPRP,-0.195
8,RRIRFRPPRLPRPRPRPMKNPRP,-0.0862
9,RRIRGRPPRLPRPRPRPEQSPRP,1.05
10,RRIRIRPPRLPRPRPRPDCLPRP,0.0966
11,RRIRVRPPRLPRPRPRPMEEPRP,0.215
12,RRIRGRPPRLPRPRPRPTFIPRP,-0.0836
13,RRIRDRPPRLPRPRPRPEYIPRP,-0.0149
14,RRIRLRPPRLPRPRPRPIYYPRP,-0.561
15,RRIRDRPPRLPRPRPRPYPSPRP,-0.167
16,RRIRARPPRLPRPRPRPRMFPRP,0.345
17,RRIRVRPPRLPRPRPRPYAHPRP,-0.38
18,RRIRDRPPRLPRPRPRPFDIPRP,0.289
19,RRIRERPPRLPRPRPRPTLCPRP,0.259
20,RRIRDRPPRLPRPRPRPPVSPRP,0.0155
21,RRIRCRPPRLPRPRPRPCGFPRP,-0.29
22,RRIRGRPPRLPRPRPRPYLPPRP,-0.204
23,RRIRLRPPRLPRPRPRPNNQPRP,-0.287
24,RRIRLRPPRLPRPRPRPTDCPRP,-0.197
25,RRIRMRPPRLPRPRPRPAEDPRP,1.93

row,Sequence,shrunken log2 fold change
1,RRIRKRPPRLPRPRPRPNWKPRP,0.363
2,RRIRLRPPRLPRPRPRPNQGPRP,-0.148
3,RRIRFRPPRLPRPRPRPQDMPRP,0.028
4,RRIRVRPPRLPRPRPRPCWSPRP,0.0821
5,RRIRARPPRLPRPRPRPCPAPRP,0.209
6,RRIRCRPPRLPRPRPRPACTPRP,-0.00637
7,RRIRVRPPRLPRPRPRPTFMPRP,-0.0669
8,RRIRKRPPRLPRPRPRPTWPPRP,0.766
9,RRIRRRPPRLPRPRPRPHWDPRP,-0.0203
10,RRIRGRPPRLPRPRPRPVAGPRP,1.12
11,RRIRPRPPRLPRPRPRPFQLPRP,-0.0657
12,RRIRERPPRLPRPRPRPQMPPRP,-0.292
13,RRIRKRPPRLPRPRPRPEASPRP,0.497
14,RRIRKRPPRLPRPRPRPLDNPRP,0.0829
15,RRIRCRPPRLPRPRPRPIREPRP,-0.0298
16,RRIRPRPPRLPRPRPRPWLEPRP,-0.0732
17,RRIRNRPPRLPRPRPRPVRPPRP,0.555
18,RRIRSRPPRLPRPRPRPDALPRP,0.353
19,RRIRHRPPRLPRPRPRPSAQPRP,0.127
20,RRIRYRPPRLPRPRPRPDGAPRP,-0.0116
21,RRIRDRPPRLPRPRPRPSYIPRP,-0.267
22,RRIRMRPPRLPRPRPRPCIEPRP,-0.122
23,RRIRSRPPRLPRPRPRPYWMPRP,-0.648
24,RRIRRRPPRLPRPRPRPMDAPRP,0.161
25,RRIRQRPPRLPRPRPRPYIVPRP,0.04

row,Sequence,shrunken log2 fold change
1,RRIRIRPPRLPRPRPRPESWPRP,0.249
2,RRIRERPPRLPRPRPRPIKQPRP,-0.00681
3,RRIRLRPPRLPRPRPRPHQWPRP,-0.0297
4,RRIRKRPPRLPRPRPRPNRWPRP,0.398
5,RRIRNRPPRLPRPRPRPCFEPRP,0.00026
6,RRIRHRPPRLPRPRPRPYMYPRP,-1.14
7,RRIRWRPPRLPRPRPRPYHDPRP,-0.868
8,RRIRGRPPRLPRPRPRPDSDPRP,0.0289
9,RRIRFRPPRLPRPRPRPRDFPRP,-0.141
10,RRIRRRPPRLPRPRPRPIFTPRP,0.2
11,RRIRFRPPRLPRPRPRPRTVPRP,0.086
12,RRIRTRPPRLPRPRPRPHIYPRP,-0.00363
13,RRIRFRPPRLPRPRPRPVETPRP,-0.0497
14,RRIRFRPPRLPRPRPRPGVGPRP,0.358
15,RRIRNRPPRLPRPRPRPNTVPRP,-0.409
16,RRIRERPPRLPRPRPRPVQSPRP,-0.015
17,RRIRYRPPRLPRPRPRPWYKPRP,-0.0225
18,RRIRKRPPRLPRPRPRPEPMPRP,0.504
19,RRIRPRPPRLPRPRPRPCRRPRP,0.117
20,RRIRHRPPRLPRPRPRPGYVPRP,-0.211
21,RRIRTRPPRLPRPRPRPWFPPRP,-0.735
22,RRIRWRPPRLPRPRPRPKCGPRP,0.594
23,RRIRFRPPRLPRPRPRPKGEPRP,0.35
24,RRIRTRPPRLPRPRPRPMVNPRP,0.0818
25,RRIRFRPPRLPRPRPRPWFSPRP,-0.0536
